Experiment [1] deals with T1, human NGF (Sino Biological, Inc.; Catalog No. 11050-HNAC) (human, UniProt P01138 122-241, limits assumed, biotinylated in the Octet assay of Example 3 (sites not given); not biotinylated in the TF1 assay).
T1 construct: also called nerve growth factor; biotinylated NGF
Put plainly: BLI (Octet); biotinylated human NGF on streptavidin tips, TrkA-Fc 25 ug/mL; 1:1 fit. How it is done: Binding activity of canine, feline, and equine TrkA ECD v2 and v3 fusion polypeptides prepared in Example 2 (SEQ ID NOs: 16, 17, 19, 20, 22, and 23) to commercially-available human NGF was considered. The binding analysis was performed using a biosensor Octet as follows. Briefly, human NGF (Sino Biological, Inc.; Catalog No. 11050-HNAC) was biotinylated. The free unreacted biotin was removed from biotinylated NGF by extensive dialysis. Biotinylated NGF was captured on streptavidin sensor tips. The association of NGF with TrkA-Fc (25 ug/mL) was monitored for 600 seconds. Dissociation was monitored for 600 seconds. A buffer only blank curve was subtracted to correct for any drift. The data were fit to a 1:1 binding model using ForteBio™ data analysis software to determine the kₒₙ, koff, and the Kd. The buffer for dilutions and all binding steps was: 20 mM phosphate, 150 mM NaCl, pH 7.2.
FIG. 1 and FIG. 2 are sensorgrams showing that canine, feline, and equine TrkA ECD v2 and v3 fusion polypeptides all bind NGF. […] Irrelevant canine and feline IgG-Fc fusion proteins were used as a negative control.
On the technique in general: Biolayer interferometry detects binding as a change in optical thickness at a sensor tip.

The next experiment has as its target human C1q (human, UniProt P02745 23-245; P02746 28-253; P02747 29-245). Kind of experiment: method not described.
The target in experiment [2] is T2, canine FcRn with a poly-His tag / canine B2M heterodimer complex (canine, biotinylated where immobilised on the Biacore chip).
T2 construct: Made in HEK cells, Ni-NTA purified; also called canine FcRn/B2M complex; soluble canine FcRn/B2M complex
T2 chain: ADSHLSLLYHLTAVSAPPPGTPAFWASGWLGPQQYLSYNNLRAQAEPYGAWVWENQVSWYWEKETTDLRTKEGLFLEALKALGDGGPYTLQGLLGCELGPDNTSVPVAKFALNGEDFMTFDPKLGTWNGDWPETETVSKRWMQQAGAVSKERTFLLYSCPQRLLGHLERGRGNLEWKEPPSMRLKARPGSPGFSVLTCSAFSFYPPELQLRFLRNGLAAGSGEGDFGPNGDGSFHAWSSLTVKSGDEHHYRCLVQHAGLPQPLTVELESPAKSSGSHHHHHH
T2 b2m: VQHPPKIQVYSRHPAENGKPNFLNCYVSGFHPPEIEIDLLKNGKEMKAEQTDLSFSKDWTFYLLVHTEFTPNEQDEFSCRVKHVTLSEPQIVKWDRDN
Kind of experiment: SPR (Biacore T200), pH 6.0; biotinylated canine FcRn/B2M complex immobilised, Fc polypeptide as analyte. An excerpt:
The koff of each of the lead variant canine IgG-B polypeptides was further investigated. Biotinylated canine FcRn/B2M complex was immobilized on a Biacore chip and exposed to each variant canine IgG-B polypeptide as an analyte using a Biacore T200 at pH 6.0.
On the technique in general: SPR reads the build-up and loss of mass on a sensor chip optically.

In experiment [3] the target is T2, canine FcRn with a poly-His tag / …. Kind of experiment: SPR (Biacore T200), steady state, 25 C, pH 6.0; SASA-tagged Fc polypeptide immobilised on CM5 chip, canine FcRn/B2M complex 12.5-200 nM as analyte. How it is done:
Binding analysis was performed using a Biacore T200. Briefly, the lead variant canine IgG-B Fc polypeptides with an SASA tag were each immobilized to a Series S Sensor Chip CM5. […] A running buffer of 10 mM HEPES, 500 mM NaCl, 3 mM EDTA, 0.005% Tween-20, pH 6.0 was used. A buffer only blank curve was used as a control.

Several values for one entry are separate records, joined by “and”; a condition that tells them apart may be missing. Identical values can stand only once.

T1 sequence (P01138 122-241 limits assumed): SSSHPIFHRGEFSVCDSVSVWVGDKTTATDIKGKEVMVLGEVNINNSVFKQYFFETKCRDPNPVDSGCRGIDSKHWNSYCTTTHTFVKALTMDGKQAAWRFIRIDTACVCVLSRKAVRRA
human C1q, sequence (P02745 23-245 limits assumed, chain 1 of 3): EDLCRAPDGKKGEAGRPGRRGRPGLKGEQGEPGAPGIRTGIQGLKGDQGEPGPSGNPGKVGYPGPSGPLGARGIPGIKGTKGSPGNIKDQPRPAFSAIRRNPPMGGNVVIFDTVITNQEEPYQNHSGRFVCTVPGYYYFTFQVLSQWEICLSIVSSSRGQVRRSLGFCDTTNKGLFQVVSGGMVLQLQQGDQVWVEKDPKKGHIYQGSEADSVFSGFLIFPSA
human C1q, sequence (P02746 28-253 limits assumed, chain 2 of 3): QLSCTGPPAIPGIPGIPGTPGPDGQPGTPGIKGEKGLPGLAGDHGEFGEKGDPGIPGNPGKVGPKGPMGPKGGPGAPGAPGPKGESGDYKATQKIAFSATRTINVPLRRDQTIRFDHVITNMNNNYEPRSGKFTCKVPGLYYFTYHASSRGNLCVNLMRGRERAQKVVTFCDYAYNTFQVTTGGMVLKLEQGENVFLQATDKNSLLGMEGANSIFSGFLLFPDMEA
human C1q, sequence (P02747 29-245 limits assumed, chain 3 of 3): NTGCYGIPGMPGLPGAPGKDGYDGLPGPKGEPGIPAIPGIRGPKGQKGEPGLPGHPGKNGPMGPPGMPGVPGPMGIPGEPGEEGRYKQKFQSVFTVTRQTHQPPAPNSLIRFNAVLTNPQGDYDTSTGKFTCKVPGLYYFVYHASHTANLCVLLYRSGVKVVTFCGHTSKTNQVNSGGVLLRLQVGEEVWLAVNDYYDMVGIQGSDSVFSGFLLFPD

B1: Canine TrkA ECD v2-wildtype canine IgG-B Fc (Fc fusion)
chain: VSFPASVQLHEAVELHHWCIPFSVDGQPAPSLRWLFNGSVLNETSFIFTEFLEPVANETVRHGCLRLNQPTHVNNGNYTLLAANPSGRAAAFVMAAFMDNPFEFNPEDPIPVSFSPVDTNSTSGDSGGGSGGGSRPPDCPKCPAPEMLGGPSVFIFPPKPKDTLLIARTPEVTCVVVDLDPEDPEVQISWFVDGKQMQTAKTQPREEQFNGTYRVVSVLPIGHQDWLKGKQFTCKVNNKALPSPIERTISKARGQAHQPSVYVLPPSREELSKNTVSLTCLIKDFFPPDIDVEWQSNGQQEPESKYRTTPPQLDEDGSYFLYSKLSVDKSRWQRGDTFICAVMHEALHNHYTQESLSHSPGK
notes: made in CHO cells; also called canine TrkA ECD v2 fusion polypeptide; canine TrkA v2
As usually defined, the Kd is a measure of binding affinity in units of concentration. Take B1: the Kd in experiment [1] is roughly 1 nM.

B2: Feline TrkA ECD v2-wildtype feline IgG2 Fc (Fc fusion)
chain: VSFPASVQLHAAVELHHWCIPFSVDGQPAPSLRWLFNGSVLNETSFIFTEFLEPAANETVRHGCLRLNQPTHVNNGNYTLLAANPSGRAAASVLAAFMDNPFEFNPEDPIPVSFSPVDSNSTSGDSGGGSGGGSPKTASTIESKTGEGPKCPVPEIPGAPSVFIFPPKPKDTLSISRTPEVTCLVVDLGPDDSNVQITWFVDNTEMHTAKTRPREEQFNSTYRVVSVLPILHQDWLKGKEFKCKVNSKSLPSAMERTISKAKGQPHEPQVYVLPPTQEELSENKVSVTCLIKGFHPPDIAVEWEITGQPEPENNYQTTPPQLDSDGTYFLYSRLSVDRSHWQRGNTYTCSVSHEALHSHHTQKSLTQSPGK
notes: CHO; also called feline TrkA ECD v2 fusion polypeptide; feline TrkA v2
On to B2, for which the Kd in experiment [1] is roughly 1 nM.

B3: Canine TrkA ECD v3-wildtype canine IgG-B Fc (Fc fusion)
chain: VSFPASVQLHEAVELHHWCIPFSVDGQPAPSLRWLFNGSVLNETSFIFTEFLEPVANETVRHGCLRLNQPTHVNNGNYTLLAANPSGRAAAFVMAAFMDNPSGGGSGGGSRPPDCPKCPAPEMLGGPSVFIFPPKPKDTLLIARTPEVTCVVVDLDPEDPEVQISWFVDGKQMQTAKTQPREEQFNGTYRVVSVLPIGHQDWLKGKQFTCKVNNKALPSPIERTISKARGQAHQPSVYVLPPSREELSKNTVSLTCLIKDFFPPDIDVEWQSNGQQEPESKYRTTPPQLDEDGSYFLYSKLSVDKSRWQRGDTFICAVMHEALHNHYTQESLSHSPGK
notes: CHO; also called canine TrkA ECD v3 fusion polypeptide; canine TrkA v3
In experiment [1], B3 had a Kd of roughly 1 nM.

B4: Feline TrkA ECD v3-wildtype feline IgG2 Fc (Fc fusion)
chain: VSFPASVQLHAAVELHHWCIPFSVDGQPAPSLRWLFNGSVLNETSFIFTEFLEPAANETVRHGCLRLNQPTHVNNGNYTLLAANPSGRAAASVLAAFMDNPSGGGSGGGSPKTASTIESKTGEGPKCPVPEIPGAPSVFIFPPKPKDTLSISRTPEVTCLVVDLGPDDSNVQITWFVDNTEMHTAKTRPREEQFNSTYRVVSVLPILHQDWLKGKEFKCKVNSKSLPSAMERTISKAKGQPHEPQVYVLPPTQEELSENKVSVTCLIKGFHPPDIAVEWEITGQPEPENNYQTTPPQLDSDGTYFLYSRLSVDRSHWQRGNTYTCSVSHEALHSHHTQKSLTQSPGK
notes: CHO; also called feline TrkA ECD v3 fusion polypeptide; feline TrkA v3
B4 displayed a dissociation constant (Kd) in experiment [1] of roughly 1 nM.

B5: Equine TrkA ECD v3-variant equine IgG2 Fc (Protein A+, C1q-, CD16-) (Fc fusion)
chain: VSFPASVHLQTAVEQHHWCIPFSVDGQPAPTLRWLFNGSVLNETSFIFTEFLESAANETMRHGCLRLNQPTHVNNGNYTLLATNPYGQDSASVMVAFMDNPPPCVLSAEGVIPIPSVPKPQCPPYTHSKFLGGPSVFIFPPNPKDTLMISRTPVVTCVVVNLSDQYPDVQFSWYVDNTEVHSAITKQREAQFNSTYRVVSVLPIQHQDWLSGKEFKCSVTNVGVPQPISRAISRGKGPSRVPQVYVLPPHPDELAKSKVSVTCLVKDFYPPDISVEWQSNRWPELEGKYSTTPAQLDGDGSYFLYSKLSLETSRWQQVESFTCAVMHEALHNHYTKTDISESLGK
notes: CHO; also called equine TrkA ECD v3 fusion polypeptide; equine TrkA v3
In the case of B5, in experiment [1], the Kd was roughly 1 nM.

B6: fusion protein comprising wild-type canine IgG-B Fc (Fc fusion, not shown: large carriers)
chain: PAPEMLGGPSVFIFPPKPKDTLLIARTPEVTCVVVDLDPEDPEVQISWFVDGKQMQTAKTQPREEQFNGTYRVVSVLPIGHQDWLKGKQFTCKVNNKALPSPIERTISKARGQAHQPSVYVLPPSREELSKNTVSLTCLIKDFFPPDIDVEWQSNGQQEPESKYRTTPPQLDEDGSYFLYSKLSVDKSRWQRGDTFICAVMHEALHNHYTQESLSHSPGK
On to B6, for which the binding result with human C1q was “binds”.

B7: wild-type canine IgG-B Fc polypeptide (other)
chain: PAPEMLGGPSVFIFPPKPKDTLLIARTPEVTCVVVDLDPEDPEVQISWFVDGKQMQTAKTQPREEQFNGTYRVVSVLPIGHQDWLKGKQFTCKVNNKALPSPIERTISKARGQAHQPSVYVLPPSREELSKNTVSLTCLIKDFFPPDIDVEWQSNGQQEPESKYRTTPPQLDEDGSYFLYSKLSVDKSRWQRGDTFICAVMHEALHNHYTQESLSHSPGK
notes: Expressed from plasmid pFASEBA in E. coli with an SASA tag; also called wildtype IgG-B Fc polypeptide; not shown: SASA tag
For orientation: koff means a measure of how fast the partners let go of each other. Low values mean a long-lived complex, high ones a short-lived complex. With B7, the koff in experiment [2] was found to be 0.122 s⁻¹. Further, the affinity in experiment [3], expressed as Kd, was 1250 nM.

B8: variant canine IgG-B Fc polypeptide L(23)Y (other)
chain: PAPEMLGGPSVFIFPPKPKDTLYIARTPEVTCVVVDLDPEDPEVQISWFVDGKQMQTAKTQPREEQFNGTYRVVSVLPIGHQDWLKGKQFTCKVNNKALPSPIERTISKARGQAHQPSVYVLPPSREELSKNTVSLTCLIKDFFPPDIDVEWQSNGQQEPESKYRTTPPQLDEDGSYFLYSKLSVDKSRWQRGDTFICAVMHEALHNHYTQESLSHSPGK
notes: E. coli expressed, with SASA tag; also called Y00; not shown: SASA tag
In experiment [2], B8 returned a koff of 0.0138 s⁻¹. Moreover, binding in experiment [3] was put at a Kd of 113 nM.

B9: variant canine IgG-B Fc polypeptide L(23)M (other)
chain: PAPEMLGGPSVFIFPPKPKDTLMIARTPEVTCVVVDLDPEDPEVQISWFVDGKQMQTAKTQPREEQFNGTYRVVSVLPIGHQDWLKGKQFTCKVNNKALPSPIERTISKARGQAHQPSVYVLPPSREELSKNTVSLTCLIKDFFPPDIDVEWQSNGQQEPESKYRTTPPQLDEDGSYFLYSKLSVDKSRWQRGDTFICAVMHEALHNHYTQESLSHSPGK
notes: not shown: SASA tag
Take B9: the koff in experiment [2] was 0.126 s⁻¹. Also, binding in experiment [3] was put at a Kd of 406 nM.

B10: variant canine IgG-B polypeptide L(23)S (other)
chain: PAPEMLGGPSVFIFPPKPKDTLSIARTPEVTCVVVDLDPEDPEVQISWFVDGKQMQTAKTQPREEQFNGTYRVVSVLPIGHQDWLKGKQFTCKVNNKALPSPIERTISKARGQAHQPSVYVLPPSREELSKNTVSLTCLIKDFFPPDIDVEWQSNGQQEPESKYRTTPPQLDEDGSYFLYSKLSVDKSRWQRGDTFICAVMHEALHNHYTQESLSHSPGK
notes: not shown: SASA tag
Turning to B10, the off-rate (koff) in experiment [2] is 0.241 s⁻¹.

B11: variant canine IgG-B Fc polypeptide L(23)F (other)
chain: PAPEMLGGPSVFIFPPKPKDTLFIARTPEVTCVVVDLDPEDPEVQISWFVDGKQMQTAKTQPREEQFNGTYRVVSVLPIGHQDWLKGKQFTCKVNNKALPSPIERTISKARGQAHQPSVYVLPPSREELSKNTVSLTCLIKDFFPPDIDVEWQSNGQQEPESKYRTTPPQLDEDGSYFLYSKLSVDKSRWQRGDTFICAVMHEALHNHYTQESLSHSPGK
notes: E. coli expressed, with SASA tag; also called F00; not shown: SASA tag
On to B11, for which the koff in experiment [2] is 0.0631 s⁻¹ and 0.0847 s⁻¹. Moreover, binding in experiment [3] was put at a Kd of 367 nM.

B12: variant canine IgG-B Fc polypeptide YTE (other, not shown: small tags and cut ends)
chain: PAPEMLGGPSVFIFPPKPKDTLYITREPEVTCVVVDLDPEDPEVQISWFVDGKQMQTAKTQPREEQFNGTYRVVSVLPIGHQDWLKGKQFTCKVNNKALPSPIERTISKARGQAHQPSVYVLPPSREELSKNTVSLTCLIKDFFPPDIDVEWQSNGQQEPESKYRTTPPQLDEDGSYFLYSKLSVDKSRWQRGDTFICAVMHEALHNHYTQESLSHSPGK
notes: also called Leu23Tyr Ala25Thr Thr27Glu
In the case of B12, the equilibrium dissociation constant (Kd) in experiment [3] was 86.2 nM.

B13: fusion protein comprising variant canine IgG-B Fc K(93)R (Fc fusion, not shown: large carriers)
chain: PAPEMLGGPSVFIFPPKPKDTLLIARTPEVTCVVVDLDPEDPEVQISWFVDGKQMQTAKTQPREEQFNGTYRVVSVLPIGHQDWLKGKQFTCRVNNKALPSPIERTISKARGQAHQPSVYVLPPSREELSKNTVSLTCLIKDFFPPDIDVEWQSNGQQEPESKYRTTPPQLDEDGSYFLYSKLSVDKSRWQRGDTFICAVMHEALHNHYTQESLSHSPGK
notes: also called variant canine IgG-B Fc K(93)R fusion protein
Turning to B13, the binding result with human C1q was “binds”.

Source of the values: patent US20220169740A1 (KINDRED BIOSCIENCES, published 2022).
